One test concerns menin T349M. Details: method as in PMID 36922589. As to conditions: versus wild-type menin; cited from earlier work.
In a further test the target is T1, menin^T349M (Homo sapiens, UniProt O00255, T344M).
T1 construct: The gene encoding full-length human menin was cloned into a pET32a expression vector; thioredoxin-His6 (cleaved yes); made in house; host or cells: E. coli BL21(DE3)
T1 sequence (O00255 1-610 T344M): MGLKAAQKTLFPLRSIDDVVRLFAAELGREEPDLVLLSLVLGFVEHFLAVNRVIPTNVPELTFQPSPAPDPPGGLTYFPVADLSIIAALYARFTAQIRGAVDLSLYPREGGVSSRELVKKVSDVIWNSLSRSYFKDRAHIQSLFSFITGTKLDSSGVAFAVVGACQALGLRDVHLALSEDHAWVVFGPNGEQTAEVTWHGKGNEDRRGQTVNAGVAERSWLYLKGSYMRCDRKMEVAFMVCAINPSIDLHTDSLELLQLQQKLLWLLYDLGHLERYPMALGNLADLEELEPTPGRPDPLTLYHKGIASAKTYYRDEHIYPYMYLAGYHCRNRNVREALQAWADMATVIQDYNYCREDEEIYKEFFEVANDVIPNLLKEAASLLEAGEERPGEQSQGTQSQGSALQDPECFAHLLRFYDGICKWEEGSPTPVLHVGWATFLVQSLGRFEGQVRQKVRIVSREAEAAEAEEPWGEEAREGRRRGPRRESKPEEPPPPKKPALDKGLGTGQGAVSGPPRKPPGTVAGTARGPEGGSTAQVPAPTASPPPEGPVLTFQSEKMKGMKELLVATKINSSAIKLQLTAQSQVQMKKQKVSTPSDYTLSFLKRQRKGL
In words: ITC binding of MLL1 fragments to menin^T349M. How it is done: (§1) Menin and MLL1 fragments were dialyzed at 4 °C against a 50 mM sodium phosphate pH 7.5, 50 mM NaCl, 1 mM TCEP buffer, and degassed prior to measurement. The titrations were performed using the VP-ITC system (MicroCal) at 25 °C. The calorimetric cell, which contained menin (concentrations in the 5–10 μM range), was titrated with the MLL1^160 and MLL1^4-15 derived peptides (concentration range 40–100 μM) injected in 10-μL aliquots. Data was analyzed using Origin 7.0 (OriginLab) to obtain Kd, stoichiometry, entropy, and enthalpy ([2]). Experiments with WT, M327I, T349M, and G331R menin and MLL1^160 or MLL1^4-15 were run in duplicate. Experiments with G331D menin and MLL1^160 were run in duplicate while experiments with G331D and MLL1^4-15 were run in quadruplicate.

The target in another test is T2, menin^M327I (Homo sapiens, UniProt O00255, M322I).
T2 construct: The gene encoding full-length human menin was cloned into a pET32a expression vector; thioredoxin-His6 (cleaved yes); made in house; host or cells: E. coli BL21(DE3)
T2 sequence (O00255 1-610 M322I): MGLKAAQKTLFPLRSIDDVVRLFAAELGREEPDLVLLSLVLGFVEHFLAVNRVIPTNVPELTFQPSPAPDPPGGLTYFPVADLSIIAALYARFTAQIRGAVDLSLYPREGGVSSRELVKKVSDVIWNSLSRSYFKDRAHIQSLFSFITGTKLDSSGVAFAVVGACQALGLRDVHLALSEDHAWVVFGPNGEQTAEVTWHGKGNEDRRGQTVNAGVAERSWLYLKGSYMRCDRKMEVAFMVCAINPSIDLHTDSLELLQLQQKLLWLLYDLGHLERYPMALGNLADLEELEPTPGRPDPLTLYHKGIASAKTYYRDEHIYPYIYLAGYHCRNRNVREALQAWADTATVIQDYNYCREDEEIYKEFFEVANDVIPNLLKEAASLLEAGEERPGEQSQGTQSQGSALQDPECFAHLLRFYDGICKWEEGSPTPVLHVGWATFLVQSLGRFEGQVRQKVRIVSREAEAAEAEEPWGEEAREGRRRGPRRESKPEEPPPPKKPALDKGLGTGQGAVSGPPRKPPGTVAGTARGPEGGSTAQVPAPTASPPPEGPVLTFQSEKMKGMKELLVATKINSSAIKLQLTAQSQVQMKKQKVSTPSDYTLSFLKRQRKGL
Description: ITC binding of MLL1 fragments to menin^M327I. The procedure: as §1

For a further test, the target named is T3, menin^G331R (Homo sapiens, UniProt O00255, G326R).
T3 construct: The gene encoding full-length human menin was cloned into a pET32a expression vector; thioredoxin-His6 (cleaved yes); made in house; host or cells: E. coli BL21(DE3)
T3 sequence (O00255 1-610 G326R): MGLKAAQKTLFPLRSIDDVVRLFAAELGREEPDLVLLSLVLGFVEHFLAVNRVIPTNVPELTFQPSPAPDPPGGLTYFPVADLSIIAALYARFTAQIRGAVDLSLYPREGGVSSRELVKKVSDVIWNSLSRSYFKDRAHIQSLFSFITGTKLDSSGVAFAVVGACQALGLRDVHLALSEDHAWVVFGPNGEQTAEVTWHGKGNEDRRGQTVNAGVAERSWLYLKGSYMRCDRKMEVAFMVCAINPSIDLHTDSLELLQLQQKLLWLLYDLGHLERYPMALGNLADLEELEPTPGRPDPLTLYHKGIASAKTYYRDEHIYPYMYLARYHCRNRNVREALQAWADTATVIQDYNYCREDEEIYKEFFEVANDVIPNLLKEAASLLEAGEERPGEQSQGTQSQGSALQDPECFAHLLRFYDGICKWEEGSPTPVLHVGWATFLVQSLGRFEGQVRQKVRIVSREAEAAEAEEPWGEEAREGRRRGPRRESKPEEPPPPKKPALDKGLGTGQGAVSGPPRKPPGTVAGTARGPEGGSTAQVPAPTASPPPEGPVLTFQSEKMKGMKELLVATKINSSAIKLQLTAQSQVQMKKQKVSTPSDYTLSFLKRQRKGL
Description: ITC binding of MLL1 fragments to menin^G331R. How it is done:
as §1

Where [1] appears, read: ITC, representative binding isotherm Fig. 1A, 25 °C, read-out: Kd.

Like-named read-outs stand apart in the source and are kept apart here.

Usually Kd stands for the concentration at which binding is half-saturated.

With `CCN(C(=O)c1cc(F)ccc1Oc1cncnc1N1CC2(CCN(C[C@H]3CC[C@H](NS(=O)(=O)CC)CC3)CC2)C1)C(C)C` [Revumenib, reference compound], the “reduction of binding by T349M mutation” value in the test on menin T349M is reported as 111 fold.

B1: MLL1^160: N-terminal 160 amino acids of human MLL1, Cys2 mutated to alanine, recombinant (protein)
chain: MAHSARWRFPARPGTTGGGGGGGRRGLGGAPRQRVPALLLPPGPPVGGGGPGAPPSPPAVAAAAAAAGSSGAGVPGGAAAASAASSSSASSSSSSSSSASSGPALLRVGPGFDAALQVSAAIGTNLRRFRAVFGESGGGGGSGEDEQFLGFGSDEEVRVR
modifications: The printed 'Cys2' is the single N-terminal cysteine, Cys5 in the entry (peptide S4-A5-R6); Trx-His6 tag cleaved
Turning to B1, the Kd in the test with menin^T349M (ITC summary Fig. 1B, values marked *, n = 2, read-out: T349M Kd (nM), ITC) came out at 2.6 ± 0.7 nM; in the test with menin^T349M (setting [1]) it was 2.6 ± 0.7 nM; with menin^M327I (ITC summary Fig. 1B, values marked *, n = 2, read-out: M327I Kd (nM), ITC), 2.2 ± 0.6 nM; with menin^M327I (setting [1]), 2.2 ± 0.6 nM; in the test with menin^G331R (ITC summary Fig. 1B, values marked *, n = 2, read-out: G331R Kd (nM), ITC), 1.3 ± 0.3 nM; with menin^G331R (setting [1]), 1.1 ± 0.3 nM.

The record behind these values is PMC11490872, “Drug-resistant menin variants retain high binding affinity and interactions with MLL1” (The Journal of Biological Chemistry, 2024).
